Assays:
[1] = molecular target: androglobin heme-binding globin domain (circularly permuted globin domain of androglobin) (human); test: SEC; size exclusion analysis in 150 mM NaCl buffer
[2] = molecular target: androglobin heme-binding globin domain (circularly permuted globin domain of androglobin) (human); test: SEC; size exclusion analysis in a phosphate buffer, without salt

stoichiometry N [1]: 4
stoichiometry N [2]: 2
Substance: androglobin heme-binding globin domain (circularly permuted globin domain of androglobin) (domain or fragment)
